This note sets out measurements from US6221608A, “Methods for identifying erythropoietin receptor binding protein” (Ortho Pharmaceutical Corporation, priority 1997, dated 2001).

In assay [1] the target is T1, EBP (Homo sapiens, UniProt P19235).
T1 construct: one encoding amino acids 1-225 of the extracellular domain of the mature hEPOR; made in house; host or cells: E. coli BL21(DE3)pLysS (plasmid pSAM3)
T1 sequence (P19235 25-249): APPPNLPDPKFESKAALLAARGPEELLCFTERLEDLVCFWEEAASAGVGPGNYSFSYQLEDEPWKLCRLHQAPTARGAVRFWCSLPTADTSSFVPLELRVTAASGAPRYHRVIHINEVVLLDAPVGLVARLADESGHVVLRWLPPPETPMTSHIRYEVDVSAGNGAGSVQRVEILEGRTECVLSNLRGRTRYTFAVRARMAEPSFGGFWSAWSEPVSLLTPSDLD
The assay can be described thus: EBP bead competitive binding assay vs [125I]EPO. Conditions: for competition in EBP-bead binding assay: result in words. The text has this:
EBP as produced by the above method contains one free sulfhydryl group which can be modified without affecting the solution phase binding of ligand. In order to immobilize the EBP for equilibrium binding analysis this observation was extended for the covalent attachment of EBP to agarose beads. The iodoacetyl activation chemistry of Sulfolink beads (Pierce Chemical Co, Rockford, Ill.) is specific for free thiols and assures that the linkage is not easily reversible. EBP-Sulfolink beads were made as follows: Sulfolink gel suspension (10 ml) was mixed with coupling buffer (40 ml: 50 mM TRIS, pH 8.3, 5 mM EDTA) and the gel was allowed to settle. The supernatant was removed and the EBP (0.3-1 mg/ml in coupling buffer) to be bound was added directly to the washed beads. The mixture was rocked gently for 30 minutes at room temperature, and the beads were allowed to settle for 1 hour at room temperature. The supernatant was removed and saved, and the beads were washed twice with 20 ml of coupling buffer. The washes were retained as well. The beads were then treated with 20 ml of 0.05 M cysteine for 30 minutes at room temperature to block unbound sites. Finally, the beads were washed with 50 ml of 1 M NaCl, then with 30 ml of PBS, and resuspended in 20 ml of PBS and stored at 4° C. The amount of EBP which was covalently bound to the beads was determined by comparing the OD280 of the original EBP solution to the total OD280 recovered in the reaction supernatant and the two 20 ml washes. Typically, 40-60% of the applied EBP remains associated with the beads.
Competitive binding assays of peptides were performed as described herein. Individual peptides were dissolved in DMSO to prepare a stock solution of 1 mM. […] Initial assay points with no added peptide were included in each assay to determine total binding. Binding mixtures were incubated overnight at room temperature with gentle rocking. The beads were then collected using Micro-columns (Isolab, Inc.) and washed with 3 mL of wash buffer (PBS/5% BSA). The columns containing the washed beads were placed in 12×75 mm glass tubes and bound radioactivity levels determined in a gamma counter.

Another assay deals with FDC-P1/hER cells. The assay can be described thus: EPO dependent cell proliferation assay. The format is cell-based, human EPO receptor. Conditions: for EC50 / FDCP-P1-hER ED50: amount of peptide for one half of maximal activity of recombinant EPO, 42 h + 6 h [3H]thymidine; for EC50: 2880 min, read-out: FDCP-P1-hER ED50; for EPO mimetic activity / proliferative capacity: cell proliferation, result in words. Here is the method:
At 24 hours, the cells were counted, resuspended at 800,000 cells/ml and dispensed at 40,000 cells/well. Stock solutions of the respective peptides (10 mM in DMSO) were prepared and dispensed in triplicate to final concentrations of 1×10^-10 M through 1×10^-5 M and adjusted to a final volume of 0.2 ml. […] A standard EPO dose response curve was generated with each assay series. After a 42 hours incubation at 37° C. (about 2 cell doublings) 1 μCi/well of [^3 H] thymidine was added and the incubation continued for 6 hours at which time the cells were harvested and counted to assess [^3 H] thymidine incorporation as a measure of cell proliferation.

The target in assay [2] is T1, EBP. Briefly: DPDPB crosslinking: dimerization of EBP by EPO mimetic peptides (SDS-PAGE). Format: biochemical. To be noted: 22 μM EBP, 1.1 mM DPDPB, 400 μM peptide, visual detection of dimer product. Here is the method:
Peptide-mediated receptor dimerization was stabilized for study using the non-water soluble homobifunctional sulfhydryl reactive cross linking reagent DPDPB (1,4-di-[2'-pyridyldithio)propionamido]butane, Pierce Chemical Co., Rockford, Ill.). EBP (22 μM) was incubated in the presence or absence of DPDPB (1.1 mM), 400 μM peptide ligand, 75 μl of PBS, pH 7.5 with all reactions and controls containing a final concentration of 4.4% DMSO and 0.007% TFA. These samples were incubated for 4 hours at room temperature and stored at 4° C. for 12 hours before analysis under reducing and non-reducing conditions by SDS-PAGE (10-20% gradient gels, Integrated Separations Systems, Natick, Mass.).

The target of assay [3] is T2, EBP-Ig (Homo sapiens, UniProt P19235).
T2 construct: one encoding amino acids 1-225 of the extracellular domain of the mature hEPOR; made in house
T2 sequence (P19235 with tags, fused parts or gaps limits assumed): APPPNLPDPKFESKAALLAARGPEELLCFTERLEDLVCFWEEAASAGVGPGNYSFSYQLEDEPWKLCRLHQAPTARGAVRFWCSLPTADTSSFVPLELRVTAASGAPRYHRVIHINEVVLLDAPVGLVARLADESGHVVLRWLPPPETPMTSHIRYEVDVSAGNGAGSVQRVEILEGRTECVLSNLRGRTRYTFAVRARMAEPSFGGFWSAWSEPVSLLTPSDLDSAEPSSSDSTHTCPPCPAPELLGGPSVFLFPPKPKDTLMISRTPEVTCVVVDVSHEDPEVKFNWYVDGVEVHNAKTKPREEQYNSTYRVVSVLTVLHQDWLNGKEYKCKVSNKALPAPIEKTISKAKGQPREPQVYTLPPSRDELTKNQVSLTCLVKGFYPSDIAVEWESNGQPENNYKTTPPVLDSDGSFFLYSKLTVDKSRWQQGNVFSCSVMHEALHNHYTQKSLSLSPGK
Briefly: Fluorescence polarization competitive binding assay with fluorescein-RWJ 61718. Conditions: for competition in FP/EBP-Ig assay: fluorescein-RWJ 61718 as labelled ligand, result in words; for IC50: read-out: FP/EBP-Ig IC50. Here is the method:
Fluorescence polarization (FP) is a useful technique capable of providing information on changes in molecular volume which occur upon the association or dissociation of two molecules. […] Conversely, if a non-fluorescent competitor molecule is added to this complex then a decrease in the fluorescence polarization value can be anticipated [Checovich, W. J., Bolger, R. E. & Burke, T. Fluorescence polarization-a new tool for cell and molecular biology, Nature 375, 254-256 (1995)]. RWJ 61718 was labeled with a fluorescein reporter group by treating 10 mg of peptide solubilized in 3 ml of PBS with 17.9 mg of fluorescein isothiocyanate dissolved in 1 ml DMSO (added in 100 μl aliquots). RWJ 61718 contained a single amine (N-terminus) and 1:1 label incorporation was expected. This mixture was placed on ice and the solution cleared by the addition of 1.0 ml of DMSO. Following a 34 hour incubation at 4° C., fluorescein labeled RWJ 61718 was isolated by reverse phase HPLC. The entire reaction mixture was diluted 1:2 with 0.1% trifluoroacetic acid (TFA; mobile phase A), pumped onto a C-18 reversed phase preparative column (Vydac #218tp54) at 8 ml/min and eluted with a 90 minute linear gradient of 0-100% mobile phase B (acetonitrile containing 0.7% TFA). Fractions containing fluorescent products (excitation wavelength 488 nm, emission wavelength 530 nm) at 530 nm were collected and lyophilized. A highly fluorescent peak eluting at near 60 minutes (ca 60% mobile phase B) was determined to be the desired product by monitoring FP changes in the presence of EBP-Ig.
A competitive FP assay using fluorescein labeled RWJ 61718 as the receptor ligand was established as follows using a Fluorescence Polarization Microtiter System (Jolley Consulting). Test peptides at variable concentrations and EBP-Ig (3S mutant, 0.025 mg/ml) were incubated for 1 hour at room temperature in 90 μl PBS and dispensed into a Dynatech Microfluor plate 96 well plate. Fluorescein-RWJ 61718 was added to each well (10 μl in 0.1% TFA) to a final concentration of 2.5 μM followed by an additional 1 hr incubation at room temperate in the dark. Values for milliPolarization (mP) were obtained at an instrument voltage setting of 8.0. Baseline peptide values were determined from wells which contained only labeled peptide and PBS. Total mP readings were determined in test wells which contained labeled peptide and EBP-Ig only. Peptide concentration dependent competitive reduction in mP values were determined and an IC50 value calculated.
For orientation: In fluorescence polarisation assays a small probe gives low polarisation when free and higher when bound to something large.

Assay [4] addresses T2, EBP-Ig. The assay can be described thus: EBP-Ig Flash Plate EPO radioligand binding assay. Conditions: for IC50: read-out: EBP-Ig Binding IC 50; for competition in EBP-Ig binding assay: result in words. The text has this:
The interaction of biotin and strepavidin is frequently employed to capture and effectively immobilize reagents useful in assay protocols and has been employed here as a simple method to capture and immobilize EBP-Ig. EBP-Ig is initially randomly modified with an amine reactive derivative of biotin to produce biotinylated-EBP-Ig. Use of strepavidin coated plates allows the capture of the biotinylated EBP-Ig on the surface of a scintillant impregnated coated well (Flash plates, NEN-DuPont). […] The amount of light produced was quantified to estimate the amount of ligand binding. The specific assay format was suitable for the multi-well plate capacity of a Packard TopCount Microplate Scintillation counter.
Biotinylated EBP-Ig (3S mutant) was prepared as follows. EBP-Ig (3 ml, OD280 2.9) was exchanged into 50 mM sodium bicarbonate, pH 8.5 using a Centriprep 10 ultrafiltration device. […] 10 μl of a 4 mg/ml solution of NHS-LC-Biotin (Pierce) was added and the reaction mixture placed on ice in the dark for two hours. Unreacted biotin was removed by exchange of the reaction buffer into PBS in a Centriprep 10 device and the protein reagent aliquoted and stored at […].
All wells were adjusted to a final DMSO concentration of 5%. […] After all additions were made, the plate was covered with an adhesive top seal and placed in the dark at room temperature overnight. The next day all liquid was aspirated from the wells to limit analyte dependent quench of the signal, and the plates were counted on a Packard TOPCOUNT Microplate Scintillation Counter. […] Corrected total binding (CTB) was calculated as: TB-NSB=CTB. The concentration of test peptide which reduced CTB to 50% was reported as the IC50.

[5] abbreviates: 0.5 nM [125I]EPO, 2.5% DMSO, overnight, room temperature.
[6] abbreviates: EBP-Ig (3S mutant) 0.025 mg/ml, fluorescein-RWJ 61718 2.5 μM.
[7] abbreviates: 0.5 nM [125I]EPO, 1 μg/ml biotinylated EBP-Ig (3S mutant), 5% DMSO, overnight.

Like-named read-outs stand apart in the source and are kept apart here. Bridge positions count the residues as written; N and C are the ends. Square brackets hold non-standard residues; d marks the D form. Ends that are not written are not given here. Peptide text beside a SMILES is read from it. Tyr(3,5-Br2) = N[C@@H](Cc1cc(Br)c(O)c(Br)c1)C(=O)O

GGTYSCHFGPLTWVCKPQ [RWJ 61596] came in with an IC50 in the assay with EBP [1] (setting [5]) of 8 µM. Besides, in the assay with FDC-P1/hER cells, the EC50 is 0.08 µM.
For `CC(C)C[C@@H]1NC(=O)[C@@H]2CCCN2C(=O)CNC(=O)[C@H](Cc2ccccc2)NC(=O)[C@H](Cc2cnc[nH]2)NC(=O)[C@@H](NC(=O)[C@@H](N)CO)CSSC[C@@H](C(=O)N[C@@H](CCCCN)C(N)=O)NC(=O)[C@H](C(C)C)NC(=O)[C@H](Cc2c[nH]c3ccccc23)NC(=O)[C@H]([C@@H](C)O)NC1=O` [RWJ 61177] (H-SCHFGPLTWVCK-NH2; disulfide 2-11), in the assay with FDC-P1/hER cells, the “FDCP-P1-hER ED50” value is reported as “Inactive” and the “EPO mimetic activity / proliferative capacity” value is listed as “without proliferative capacity”. In addition, the DPDPB cross-linking entry on EBP [2] was “deficient in crosslinking ability”. For the same compound, at EBP [2] (listed as 61177), the DPDPB cross-linking result is recorded as “negative”. Also, the “FP/EBP-Ig IC50” value at EBP-Ig [3] (setting [6]) was “Inactive”. Besides, the “competition in FP/EBP-Ig assay” value on EBP-Ig [3] is “inactive”.
Consider “YSCHFGPLTWVCK (YSCHFGPLYWVCK) [RWJ 61279]”, for which the IC50 in the assay with EBP [1] (setting [5]) stood at 70 µM. In addition, in the assay with FDC-P1/hER cells, the EC50 turned out to be 8 µM and the “EPO mimetic activity / proliferative capacity” value is “with proliferative capacity”. Also, in the assay with EBP [2], the DPDPB cross-linking result is “positive”.
Consider `CC(C)C[C@@H]1NC(=O)[C@@H]2CCCN2C(=O)CNC(=O)[C@H](Cc2ccccc2)NC(=O)[C@H](Cc2c[nH]cn2)NC(=O)[C@@H](NC(=O)[C@@H](N)CO)CSSC[C@@H](C(=O)N[C@@H](CCCCN)C(N)=O)NC(=O)[C@H](C(C)C)NC(=O)[C@H](Cc2c[nH]c3ccccc23)NC(=O)[C@H]([C@@H](C)O)NC1=O` [RWJ 61177] (H-SCHFGPLTWVCK-NH2; disulfide 2-11), for which the IC50 stood at 90 µM at EBP [1] and 500 µM on EBP-Ig [4].
On to “GGLYACHMGPMTWVCQPLRG (GGKYACHMGPMTWVCQPKRG) [RWJ 61718]”, for which the IC50 with EBP [1] (setting [5]) is 3 µM; with EBP-Ig [4] (setting [7]), 0.1 µM; with EBP-Ig [3] (setting [6]), 0.35 µM. Besides, the EC50 in the assay with FDC-P1/hER cells came to 0.1 µM. Also, in the assay with FDC-P1/hER cells, the “EPO mimetic activity / proliferative capacity” value is “with proliferative capacity”. Moreover, the DPDPB cross-linking result in the assay with EBP [2] is on record as “positive”.
In the case of GGTYSCHFGPLTWVCKPQGG [RWJ 61233], the IC50 was 5 µM with EBP [1] (setting [5]), 1 µM with EBP-Ig [4] (setting [7]) and 0.5 µM in the assay with EBP-Ig [3] (setting [6]). In the assay with EBP [1], the “competition in EBP-bead binding assay” value was “competes at similar levels in both the EBP-bead and EBP-Ig binding assays”. Further, the “competition in EBP-Ig binding assay” value with EBP-Ig [4] is “competes at similar levels in both the EBP-bead and EBP-Ig binding assays”. In addition, in the assay on FDC-P1/hER cells, the EC50 was 0.1 µM. Besides, in the assay with FDC-P1/hER cells, the “EPO mimetic activity / proliferative capacity” value was “functions as an EPO mimetic”. Also, in the assay with EBP [2], the DPDPB cross-linking entry is given as “positive”. Further, in the assay with EBP-Ig [3], the “competition in FP/EBP-Ig assay” value was “positive”.
On to “GGTXSCHFGPLTWVCKPQGG (GGT[Tyr(3,5-Br2)]SCHFGPLTWVCKPQGG-NH2; disulfide 6-15 (inferred)) [RWJ 62021, X = 3,5-dibromo-tyr]”, for which the IC50 with EBP [1] (setting [5]) was found to be 150 µM; with EBP-Ig [4] (setting [7]), 400 µM; in the assay with EBP-Ig [3] (setting [6]) it was 5 µM. Moreover, the “competition in EBP-bead binding assay” value with EBP [1] is recorded as “very poorly”. For the same compound, the “competition in EBP-Ig binding assay” value with EBP-Ig [4] was “very poorly”. Besides, in the assay with FDC-P1/hER cells, the “FDCP-P1-hER ED50” value is given as “Inactive”. Besides, the “EPO mimetic activity / proliferative capacity” value with FDC-P1/hER cells is “without proliferative potential”. Besides, the DPDPB cross-linking entry in the assay with EBP [2] was “some crosslinking potential”. For the same compound, the “competition in FP/EBP-Ig assay” value with EBP-Ig [3] is “very efficient competitors”.
